“Also recorded” adds a separate entry of the source. Read-outs that look alike come from different tables or passages of the source.

Experiment [1] deals with T1, β2AR (Homo sapiens, UniProt P07550).
T1 construct: hexahistidine (C); made in house; host or cells: Sf9 insect cells
Briefly: Saturation and competition binding assays on purified β2AR reconstituted in phospholipid vesicles, with and without prebound Fab 5. The following applies: saturation binding, read-out: [3H]dihydroalprenolol Kd ± S.E. The method, then: The effect of Fab binding on ligand binding properties and on agonist-induced three dimensional changes was determined.

The next experiment deals with T2, β2AR-TMR (Homo sapiens, UniProt P07550).
T2 construct: made in house
Briefly: Fluorescence of β2AR labeled at C265 with tetramethylrhodamine (β2AR-TMR), antibody dose-response. The experiment is classed as biochemical. The method, then: FIGS. 2A and 2B. Binding characteristics of β2AR-specific antibodies. 2A, Dot-blots showing binding of nine β2AR specific antibodies to denatured receptor. Equal amounts of β2AR denatured with SDS and β-mercaptoethanol were spotted in triplicate on nitrocellulose strips. The strips were blocked with 5% non-fat dry milk in PBS-Tween (0.05% Tween-20) and then probed with […] of the indicated antibodies diluted in blocking buffer. Binding of the primary antibody to the denatured β2AR was detected with an Alexa-688 labeled anti-mouse secondary antibody. The top panel is a graphical representation of the average dot intensity from three independent experiments. The lower panel is a representative experiment. […] 2B, Dose-response curves showing the effect on increasing amounts of antibodies 4-9 on the fluorescence of β2AR labeled at C265 with tetramethylrhodamine (β2AR-TMR). β2AR-TMR was diluted to 4 nM in 500 μL of buffer consisting of 0.1% dodecylmaltoside, 100 mM sodium chloride, and 20 mM HEPES buffer (pH 7.5). […]
To select for antibodies that may interact with IC3, we examined the effect of antibody binding on the fluorescence of β2AR labeled at C265 (at the cytoplasmic end of TM6) with tetramethylrhodamine. […] As such, antibodies binding to IC3 may stabilize a specific conformation of TM5 relative to TM6 that would be detected by a change in tetramethylrhodamine fluorescence.

The next experiment concerns the target T3, denatured β2AR (Homo sapiens, UniProt P07550).
T3 construct: hexahistidine (C); made in house; host or cells: Sf9 insect cells
Briefly: Dot-blot binding of antibodies to SDS-denatured β2AR. The following applies: β2AR denatured with SDS, spotted on nitrocellulose. The protocol:
FIGS. 2A and 2B. Binding characteristics of β2AR-specific antibodies. 2A, Dot-blots showing binding of nine β2AR specific antibodies to denatured receptor. Equal amounts of β2AR denatured with SDS and β-mercaptoethanol were spotted in triplicate on nitrocellulose strips. The strips were blocked with 5% non-fat dry milk in PBS-Tween (0.05% Tween-20) and then probed with […] of the indicated antibodies diluted in blocking buffer. Binding of the primary antibody to the denatured β2AR was detected with an Alexa-688 labeled anti-mouse secondary antibody. The top panel is a graphical representation of the average dot intensity from three independent experiments. The lower panel is a representative experiment. The binding of all 9 antibodies to denatured β2AR is reduced compared to M1 binding to the linear Flag epitope. 2B, Dose-response curves showing the effect on increasing amounts of antibodies 4-9 on the fluorescence of β2AR labeled at C265 with tetramethylrhodamine (β2AR-TMR). β2AR-TMR was diluted to 4 nM in 500 μL of buffer consisting of 0.1% dodecylmaltoside, 100 mM sodium chloride, and 20 mM HEPES buffer (pH 7.5). Data represent an n of 3.
Antibodies were screened for binding to a three dimensional epitope on the three-dimensional surface on the IC3 of the native β2AR, rather than a flexible linear epitope. […]

Experiment [2] concerns the target T4, flag tagged β2AR stably expressed in HEK-293 cells (Homo sapiens, UniProt P07550).
T4 construct: expressed in transfected cells
Kind of experiment: Immunofluorescence staining of HEK-293 cells stably expressing flag tagged β2AR, nonpermeabilized or permeabilized. The following applies: compared with M1 antibody. The class given is cell-based.
Description: HEK-293 cells stably expressing a flag tagged version of the β2AR were cultured on coverslips and processed for immunocytochemistry. After fixation, with 4% paraformaldehyde, the cells were washed and blocked with 2.5% goat serum in PBS alone (nonpermeabilized) or with 0.5% NP-40 in PBS (permeabilized). The cells were incubated with the β2AR specific antibody indicated on the left side of the figure. After several washes, the β2AR monoclonal antibodies were detected with a Texas Red conjugated anti-mouse secondary antibody. […] The images shown are representative of at least 3 experiments. All images were acquired using an Axioplan 2 microscope (Carl Zeiss MicroImaging), fitted with a camera (RTE/CCD-1300-Y/HS; Roper Scientific) controlled using IPLab software (BD Bioscience).
The antibodies were characterized as binding the intracellular or extracellular surface of the receptor in immunofluorescence experiments with HEK-293 cells stably expressing an N-terminally FLAG-tagged version of the β2AR. Antibodies that recognize an intracellular epitope only stain permeabilized cells.

Experiment [3] concerns the target T5, β2AR (Homo sapiens, UniProt P07550, A271C/I135W).
T5 construct: made in house
Kind of experiment: Bimane fluorescence assay of agonist-induced conformational change (β2AR labeled with monobromobimane at H271C). The experiment is classed as biochemical. To be noted: 1 μM Fab5, 100 μM isoproterenol, 15 minutes. The text has this: (§1) FIGS. 3A and 3B. […] The fragmented β2AR was visualized using an Alexa-680 labeled M1 antibody against the N-terminal Flag epitope. […] The loop is marked with MW indicators corresponding to N-terminal fragments containing the Flag epitope. Residues sensitive to trypsin digest are shown in red. 3B, The change in the bimane fluorescence of β2AR labeled with monobromobimane at H271C at the cytoplasmic end of TM6. Bimane fluorescence is quenched by W135 at the cytoplasmic end of TM3 upon agonist binding^9. […] Fluorescence intensity was corrected for background fluorescence from buffer and ligands in all experiments. The data are the mean±S.E. of two independent experiments performed in triplicate.
Purified receptor was reacted with 1:1 equivalent of monobromobimane (mBBr, Invitrogen) in buffer A (100 mM NaCl, 20 mM HEPES, pH 7.5, 0.1% dodecyl maltoside) and incubated overnight on ice in the dark. The fluorophore-labeled receptor was purified right before use by gel filtration on a desalting column equilibrated with buffer B. Fluorescence spectroscopy experiments were performed on a Spex FluoroMax-3 spectrofluorometer (Jobin Yvon Inc, NJ) with photon counting mode by using an excitation and emission bandpass of 4 nm. All experiments were performed at 25° C. For emission scans, excitation was set at 370 nm and emission was measured from 430-530 nm with an integration time of 1 s/nm. […]

The target in experiment [4] is T1, β2AR. Kind of experiment: Coupling of purified β2AR to purified G protein. The experiment is classed as biochemical. The following applies: data not shown.
Experiment [5] addresses T1, β2AR. Kind of experiment: Limited tryptic digestion of purified β2AR with and without Fab 5, Western blot. The experiment is classed as biochemical. The following applies: preincubated with Fab 5; M1 anti-FLAG Western blot.
Description: as §1
Cleavage of purified β2AR with trypsin yielded two bands with molecular weights of approximately 27 and 29 kDa on a Western blot probed with the M1 anti-FLAG antibody (FIG. 3A). The sizes of these fragments indicate trypsin digestion at two of ten potential sites in IC3 (FIG. 3A).
A general note: A western blot detects proteins with antibodies after separation by electrophoresis.

Usually Kd stands for the constant that tells how readily two partners part at equilibrium. Consider `CCCc1ccccc1OCC(O)CNC(C)C` (stereo not shown) [[^3H]dihydroalprenolol], for which the Kd at β2AR [1] (β2AR without prebound Fab 5) was found to be 1.02 ± 0.09 nM; at β2AR [1] (β2AR-Fab5 (prebound Fab 5)), 1.08 ± 0.05 nM.

B1: antibody 5: mouse monoclonal antibody binding a three dimensional epitope on the third intracellular loop of β2AR (protein)
light: DIKMTQSPSSMYASLGERVTITCKASQDINSYLSWFQQKPGKSPKTLIYRANRLVDGVPSRFIGTGSGQDYSLTISSLDYEDMGIYYCLQYDEFPYTFGGGTKLEIKRADAAPTVSIFPPSSEQLTSGGASVVCFLNNFYPKDINVKWKIDGSERQNGVLNSWTDQDSKDSTYSMSSTLTLTKDEYERHNSYTCEATHKTSTSPIVKSFNRNEC
heavy: EVQLQQSGAELARPGASVKLSCKASGYIFTDYYINWVRQRTGQGFEWIGEIYPGSGNIDYNERFKDKATLTADKSSSTAYMQLSSLTSEDSAVYFCVRGFGYWGQGTTLTVSSAKTTPPSVYPLAPGSAAQTNSMVTLGCLVKGYFPEPVTVTWNSGSLSSGVHTFPAVLQSDLYTLSSSVTVPSSTWPSETVTCNVAHPASSTKVDKKIVPRDCGC
Regarding B1, the “affinity for the β2AR (in words)” value with β2AR-TMR (from β2AR-TMR dose-response curves, FIG. 2B) is recorded as “highest affinity; also recorded: relatively high affinity”. The “fluorescence response of β2AR-TMR” value with β2AR-TMR (β2AR labeled at C265 with tetramethylrhodamine) is given as “largest fluorescence response; also recorded: significantly greater than the response to antibody 9”. For the same molecule, the “binding to denatured β2AR” value with denatured β2AR is “weakest binding to denatured protein; also recorded: bound weakly”. Besides, the “immunostaining on binding to native receptor in fixed cells” value in experiment [2] is on record as “comparable to M1”. Also, the “effect on agonist-induced bimane fluorescence change” value with β2AR [3] was “not affected”.

B2: Fab 5: Fab fragment of antibody 5 generated by papain cleavage; light chain SEQ ID NO: 1, heavy chain SEQ ID NO: 2 (antibody)
heavy: EVQLQQSGAELARPGASVKLSCKASGYIFTDYYINWVRQRTGQGFEWIGEIYPGSGNIDYNERFKDKATLTADKSSSTAYMQLSSLTSEDSAVYFCVRGFGYWGQGTTLTVSSAKTTPPSVYPLAPGSAAQTNSMVTLGCLVKGYFPEPVTVTWNSGSLSSGVHTFPAVLQSDLYTLSSSVTVPSSTWPSETVTCNVAHPASSTKVDKKIVPRDCGC
light: DIKMTQSPSSMYASLGERVTITCKASQDINSYLSWFQQKPGKSPKTLIYRANRLVDGVPSRFIGTGSGQDYSLTISSLDYEDMGIYYCLQYDEFPYTFGGGTKLEIKRADAAPTVSIFPPSSEQLTSGGASVVCFLNNFYPKDINVKWKIDGSERQNGVLNSWTDQDSKDSTYSMSSTLTLTKDEYERHNSYTCEATHKTSTSPIVKSFNRNEC
modifications: mus musculis; UNSURE (0)...(0) Fab 5 Heavy chain; UNSURE (0)...(0) Fab5 light chain
As to B2, the “coupling of purified β2AR to purified G protein” value with β2AR [4] is given as “prevented coupling”. Moreover, the “effect on agonist-induced bimane fluorescence change” value with β2AR [3] is reported as “did not restrict the movement of transmembrane segments”. Besides, the “protection of IC3 from trypsin cleavage” value in the experiment with β2AR [5] is listed as “the 27 kDa band disappears; also recorded: protects the N-terminal end of the loop”.

Source of the values: US7947807B2, “Method for obtaining G protein-coupled receptor (GPCR) diffraction-quality crystals employing a monoclonal antibody that binds to the third intracellular loop (IL3)” (The Board of Trustees of the Leland Stanford Junior …, priority 2007, dated 2011).
